Laboratory results reported in article PMC8887465.

T1: PemK WT (Staphylococcus aureus CH-91 (plasmid …, UniProt L7PFJ6 1-112))
T1 sequence: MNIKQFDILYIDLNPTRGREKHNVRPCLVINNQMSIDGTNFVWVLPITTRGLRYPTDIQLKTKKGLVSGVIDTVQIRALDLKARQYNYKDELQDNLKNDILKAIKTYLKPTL


Experiments:
[1] = biological target: Staphylococcus aureus PemK toxin, wild type (Staphylococcus aureus CH-91 (plasmid pCH91)); assay: SEC-MALS
[2] = biological target: T1, PemK WT; assay: NMR titration

Molecule | stoichiometry N [1] | binding result [2]
Staphylococcus aureus PemK toxin, wild type (enzyme) | 2 | –
UUUAUUAA (ssRNA, deoxyuridine at position 3 (dU3), rest RNA) [ssRNA UUdUAUUAA] | – | binds
